Measured values published in patent US20230002496A1 (STAIDSON BEIJING BIOPHARMACEUTICALS, published 2023).
Like-named read-outs stand apart in the source and are kept apart here.

Columns and labels:
[1] = molecular target: T1, human GM-CSFRα, full length on cells (human, UniProt P15509 23-400); assay: cell-based or functional assay
T1 sequence: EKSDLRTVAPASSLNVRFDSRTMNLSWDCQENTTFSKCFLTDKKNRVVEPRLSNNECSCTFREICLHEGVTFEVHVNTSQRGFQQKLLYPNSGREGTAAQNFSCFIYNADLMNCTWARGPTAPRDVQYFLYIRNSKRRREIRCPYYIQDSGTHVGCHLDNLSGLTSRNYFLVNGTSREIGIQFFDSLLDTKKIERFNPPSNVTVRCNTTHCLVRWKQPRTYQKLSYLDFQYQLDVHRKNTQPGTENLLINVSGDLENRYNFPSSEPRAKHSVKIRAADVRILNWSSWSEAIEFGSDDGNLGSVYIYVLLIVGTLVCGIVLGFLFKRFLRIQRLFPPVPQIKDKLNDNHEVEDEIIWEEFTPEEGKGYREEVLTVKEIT

[2] = molecular target: T1, human GM-CSFRα, full length on cells; assay: cell-based or functional assay; remark: listed apart in the source
[3] = molecular target: T1, human GM-CSFRα, full length on cells; assay: cell-based or functional assay; remark: listed apart in the source
[4] = molecular target: T1, human GM-CSFRα, full length on cells; assay: cell-based or functional assay; remark: listed apart in the source
[5] = molecular target: T1, human GM-CSFRα, full length on cells; assay: cell-based or functional assay; remark: listed apart in the source
[6] = molecular target: T2, human GM-CSFRα-6His (human, UniProt P15509 23-320); assay: SPR, Biacore T200, antibody (IgG4) on CM5 chip, GMRah as analyte
T2 construct: pTT5-GMRa-6his (ECD), made in 293F cells; also called GMRah; GMRa-6his(ECD)
T2 sequence: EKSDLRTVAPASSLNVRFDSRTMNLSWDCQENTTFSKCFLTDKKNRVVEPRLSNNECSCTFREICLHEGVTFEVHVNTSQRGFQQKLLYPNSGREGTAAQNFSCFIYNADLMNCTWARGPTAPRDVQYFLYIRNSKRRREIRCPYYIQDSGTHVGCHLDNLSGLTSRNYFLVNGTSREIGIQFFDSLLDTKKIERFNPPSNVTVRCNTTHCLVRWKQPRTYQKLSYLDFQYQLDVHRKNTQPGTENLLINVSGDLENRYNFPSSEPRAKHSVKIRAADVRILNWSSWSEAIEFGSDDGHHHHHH
Procedure: The affinities for GMRah at various concentrations were measured. […] The concentrations of 0.625 and 0 nM were repeated once. Using the SPR technology, the association and dissociation rates were measured, and binding affinity was determined.

[7] = molecular target: T1, human GM-CSFRα, full length on cells; assay: cell-based or functional assay; remark: listed apart in the source
[8] = molecular target: T1, human GM-CSFRα, full length on cells; assay: cell-based or functional assay; remark: listed apart in the source
[9] = molecular target: T3, cynomolgus monkey GM-CSFRα on granulocytes (cynomolgus monkey, UniProt A0A2K5UC70 23-393); assay: cell-based or functional assay
T3 sequence: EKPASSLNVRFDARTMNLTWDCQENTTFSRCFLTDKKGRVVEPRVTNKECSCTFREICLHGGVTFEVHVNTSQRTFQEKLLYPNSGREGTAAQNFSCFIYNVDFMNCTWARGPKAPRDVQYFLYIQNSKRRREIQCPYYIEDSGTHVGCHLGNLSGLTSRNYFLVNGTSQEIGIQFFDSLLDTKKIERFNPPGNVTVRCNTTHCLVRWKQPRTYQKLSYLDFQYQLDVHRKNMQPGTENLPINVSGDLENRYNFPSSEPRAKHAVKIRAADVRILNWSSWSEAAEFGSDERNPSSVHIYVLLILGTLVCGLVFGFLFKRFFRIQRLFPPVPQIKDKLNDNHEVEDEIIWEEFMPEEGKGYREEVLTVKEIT

[10] = molecular target: T1, human GM-CSFRα, full length on cells; assay: cell-based or functional assay; remark: listed apart in the source
[11] = molecular target: T2, human GM-CSFRα-6His; assay: ELISA, antibodies as human IgG4, one bar for each protein; antibody concentration not shown
[12] = molecular target: T2, human GM-CSFRα-6His; assay: competitive ELISA, title on the sheet 'Blocking GMRah binding to GM-CSF'; antibody (human IgG4) titrated; blocked ligand GM-CSF; x axis 'Log Ab concentration', no unit

Molecule: Mab-IgG4 (Mavrilimumab) (antibody)
- IC50, CD11b expression on human peripheral blood cells [1]: 0.181 µg/mL
- IC50, IL-1β secretion by PBMC [1]: 0.0126 µg/mL
- IC50, TNFα secretion by PBMC (ELISA) [1]: 1.74 µg/mL
- IC50, TNFα secretion by PBMC (Human Macrophage/Microglia Panel) [1]: 3.09 µg/mL

B1: E35-IgG4 (antibody, V domains shown)
VH: QMQLVQSGAEVKKPGASVKVSCKVSGYTLTELSIHWVRQAPGKGLEWMGGFDPEDGETIYAQKFQGRVTMTGDTSTDTAYLELSSLRSEDTALYYCATGRYTSLATTYGFDYWGQGTLVTVSS
VL: EIVMTQSPATLSLSPGERATLSCRASQSVSSYLAWYQQKPGQAPRLLIYGASSRATGIPDRFSGSGSGTDFTLTISRLEPEDFAVYYCQQYDNWPYTFGQGTKLEIK
notes: human IgG4, human kappa; also called E35-IG4
- IC50, IL-1β secretion by PBMC [2]: 0.00353 µg/mL
- IC50, TNFα secretion by PBMC (Human Macrophage/Microglia Panel) [3]: 0.278 µg/mL
- IC50, TNFα secretion by PBMC (ELISA) [4]: 0.329 µg/mL
- IC50, human granulocyte shape change [5]: 0.00205 µg/mL
- Kd [6]: 8.9 pM
- koff [6]: 4.78e-05 s⁻¹
- kon [6]: 5.37e+06 M⁻¹ s⁻¹
- IC50, TF-1 cell proliferation [7]: 0.0474 µg/mL
- IC50, human granulocyte survival [8]: 0.0042 µg/mL
- IC50, cynomolgus monkey granulocyte shape change [9]: 0.00253 µg/mL
- IC50, CD11b expression on human peripheral blood cells [10]: 0.111 µg/mL

B2: E87-IgG4 (antibody, V domains shown)
VH: QMQLVQSGAEVKKPGASVKVSCKVSGYTLTELSIHWVRQAPGKGLEWMGGFDPEDGETIYAQKSQGRVTMTGDTSTDTAYLELSSLRSEDTALYYCATGRYVSLFFNYGFDYWGQGTLVTVSS
VL: EIVMTQSPATLSLSPGERATLSCRASQSVSSYLAWYQQKPGQAPRLLIYGASSRATGIPDRFSGSGSGTDFTLTISRLEPEDFAVYYCQQYNNWPPTFGQGTKLEIK
notes: human IgG4, human kappa
- binding result [11]: binds

B3: EII52-IgG4 (antibody, V domains shown)
VH: QMQLVQSGAEVKKPGASVKVSCKVSGYTLTELSIHWVRQAPGKGLEWMGGFDGDIEETIYAQKFQGRVTMTGDTSTDTAYLELSSLRSEDTALYYCATGRYTSLATTYGFDYWGQGTLVTVSS
VL: EIVMTQSPATLSLSPGERATLSCRASQSVSSYLAWYQQKPGQAPRLLIYGASSRATGIPDRFSGSGSGTDFTLTISRLEPEDFAVYYCQQYANPPNTFGQGTKLEIK
notes: human IgG4, human kappa
- binding result [12]: binds

B4: T119-IgG4 (antibody, V domains shown)
VH: QMQLVQSGAEVKKPGASVKVSCKVSGHTLTELSIHWVRQAPGKGLEWMGGFDPEDGETNYAQKSQGRVTMTGDTSTDTAYLELSSLRSEDTALYYCATGRYCSTDTCYGFDYWGQGTLVTVSS
VL: EIVMTQSPATLSLSPGERATLSCRASQSVSSYLAWYQQKPGQAPRLLIYGASSRATGIPDRFSGSGSGTDFTLTISRLEPEDFAVYYCQQYNNWPPTFGQGTKLEIK
notes: human IgG4, human kappa; parent antibody
- binding result [12]: binds

B5: E87b-IgG4 (antibody, V domains shown)
VH: QMQLVQSGAEVKKPGASVKVSCKVSGYTLTELSIHWVRQAPGKGLEWMGGFDPEDGETIYAQKSQGRVTMTGDTSTDTAYLELSSLRSEDTALYYCATGRYVSLFFNYGFDYWGQGTLVTVSS
VL: EIVMTQSPATLSLSPGERATLSCRASQSVSSYLAWYQQKPGQAPRLLIYGASSRATGIPDRFSGSGSGTDFTLTISRLEPEDFAVYYCQQYDNWPYTFGQGTKLEIK
notes: human IgG4, human kappa
- IC50, IL-1β secretion by PBMC [2]: 0.0133 µg/mL
- IC50, TNFα secretion by PBMC (Human Macrophage/Microglia Panel) [3]: 0.0666 µg/mL
- IC50, TNFα secretion by PBMC (ELISA) [4]: 0.0935 µg/mL
- IC50, human granulocyte shape change [5]: 0.00151 µg/mL
- Kd [6]: 6.75 pM
- koff [6]: 2.42e-05 s⁻¹
- kon [6]: 3.58e+06 M⁻¹ s⁻¹
- IC50, human granulocyte survival [8]: 0.00253 µg/mL
- IC50, CD11b expression on human peripheral blood cells [10]: 0.144 µg/mL

B6: E108-IgG4 (antibody, V domains shown)
VH: QMQLVQSGAEVKKPGASVKVSCKVSGHTLTELSIHWVRQAPGKGLEWMGGFDPEDGETIYAQKFQGRVTMTGDTSTDTAYLELSSLRSEDTALYYCATGRYTELYQNYGFDYWGQGTLVTVSS
VL: EIVMTQSPATLSLSPGERATLSCRASQSVSSYLAWYQQKPGQAPRLLIYGASSRATGIPDRFSGSGSGTDFTLTISRLEPEDFAVYYCQQYNNWPPTFGQGTKLEIK
- IC50, human granulocyte shape change [5]: 0.00207 µg/mL
- IC50, human granulocyte survival [8]: 0.00552 µg/mL
